Experimental data: patent publication EP0946727B1 (GENENTECH, INC., dated 2007)

Key:
[1] = molecular target: T1, rhesus CD11a (rhesus, UniProt H9Z8N3 26-1169); assay: cell binding, rhesus CD11a
T1 construct: whole, on cells; also called rhCD11a
T1 sequence: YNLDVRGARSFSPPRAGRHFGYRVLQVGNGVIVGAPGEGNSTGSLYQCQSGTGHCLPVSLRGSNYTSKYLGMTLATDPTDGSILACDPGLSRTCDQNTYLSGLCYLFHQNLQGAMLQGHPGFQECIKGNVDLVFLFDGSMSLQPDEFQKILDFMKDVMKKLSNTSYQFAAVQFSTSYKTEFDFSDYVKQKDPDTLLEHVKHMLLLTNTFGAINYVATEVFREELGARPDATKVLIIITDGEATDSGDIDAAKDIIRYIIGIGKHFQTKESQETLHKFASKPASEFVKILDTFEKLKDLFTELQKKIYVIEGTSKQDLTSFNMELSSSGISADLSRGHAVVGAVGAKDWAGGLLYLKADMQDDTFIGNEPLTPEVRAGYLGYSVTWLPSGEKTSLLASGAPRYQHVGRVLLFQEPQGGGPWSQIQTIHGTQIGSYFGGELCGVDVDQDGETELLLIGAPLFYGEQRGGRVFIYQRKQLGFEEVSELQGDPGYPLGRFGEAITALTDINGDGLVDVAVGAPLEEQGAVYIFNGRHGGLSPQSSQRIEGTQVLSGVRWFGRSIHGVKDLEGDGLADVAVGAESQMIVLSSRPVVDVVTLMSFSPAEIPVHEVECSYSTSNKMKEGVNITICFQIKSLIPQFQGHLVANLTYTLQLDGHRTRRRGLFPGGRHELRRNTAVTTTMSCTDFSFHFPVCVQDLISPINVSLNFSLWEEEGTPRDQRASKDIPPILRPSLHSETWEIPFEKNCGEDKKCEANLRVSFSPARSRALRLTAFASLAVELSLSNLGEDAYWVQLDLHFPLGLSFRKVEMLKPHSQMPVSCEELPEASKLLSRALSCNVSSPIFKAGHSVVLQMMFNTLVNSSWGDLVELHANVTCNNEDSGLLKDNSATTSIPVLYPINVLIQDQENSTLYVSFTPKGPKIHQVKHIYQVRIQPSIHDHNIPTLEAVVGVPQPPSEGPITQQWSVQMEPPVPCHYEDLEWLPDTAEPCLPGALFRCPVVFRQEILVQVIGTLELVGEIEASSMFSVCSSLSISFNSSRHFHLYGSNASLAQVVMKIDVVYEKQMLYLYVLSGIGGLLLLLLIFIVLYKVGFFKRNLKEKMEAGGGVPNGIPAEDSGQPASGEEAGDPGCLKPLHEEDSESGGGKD

[2] = molecular target: T1, rhesus CD11a; assay: cell-based or functional assay
[3] = molecular target: T1, rhesus CD11a; assay: saturation binding, Kd(app)
[4] = molecular target: T1, rhesus CD11a; assay: blocking of rhesus lymphocyte adhesion to human keratinocytes
[5] = molecular target: T1, rhesus CD11a; assay: as above; remark: listed apart in the source
[6] = molecular target: T2, rhesus-human chimeric CD11a (human CD11a with a rhesus I-domain) (human, UniProt P20701 26-1170); assay: blocking of adhesion of Rh/HuCD11a-293 cells to human keratinocytes
T2 construct: whole, on cells; also called Rh/HuCD11a
T2 sequence (looked up): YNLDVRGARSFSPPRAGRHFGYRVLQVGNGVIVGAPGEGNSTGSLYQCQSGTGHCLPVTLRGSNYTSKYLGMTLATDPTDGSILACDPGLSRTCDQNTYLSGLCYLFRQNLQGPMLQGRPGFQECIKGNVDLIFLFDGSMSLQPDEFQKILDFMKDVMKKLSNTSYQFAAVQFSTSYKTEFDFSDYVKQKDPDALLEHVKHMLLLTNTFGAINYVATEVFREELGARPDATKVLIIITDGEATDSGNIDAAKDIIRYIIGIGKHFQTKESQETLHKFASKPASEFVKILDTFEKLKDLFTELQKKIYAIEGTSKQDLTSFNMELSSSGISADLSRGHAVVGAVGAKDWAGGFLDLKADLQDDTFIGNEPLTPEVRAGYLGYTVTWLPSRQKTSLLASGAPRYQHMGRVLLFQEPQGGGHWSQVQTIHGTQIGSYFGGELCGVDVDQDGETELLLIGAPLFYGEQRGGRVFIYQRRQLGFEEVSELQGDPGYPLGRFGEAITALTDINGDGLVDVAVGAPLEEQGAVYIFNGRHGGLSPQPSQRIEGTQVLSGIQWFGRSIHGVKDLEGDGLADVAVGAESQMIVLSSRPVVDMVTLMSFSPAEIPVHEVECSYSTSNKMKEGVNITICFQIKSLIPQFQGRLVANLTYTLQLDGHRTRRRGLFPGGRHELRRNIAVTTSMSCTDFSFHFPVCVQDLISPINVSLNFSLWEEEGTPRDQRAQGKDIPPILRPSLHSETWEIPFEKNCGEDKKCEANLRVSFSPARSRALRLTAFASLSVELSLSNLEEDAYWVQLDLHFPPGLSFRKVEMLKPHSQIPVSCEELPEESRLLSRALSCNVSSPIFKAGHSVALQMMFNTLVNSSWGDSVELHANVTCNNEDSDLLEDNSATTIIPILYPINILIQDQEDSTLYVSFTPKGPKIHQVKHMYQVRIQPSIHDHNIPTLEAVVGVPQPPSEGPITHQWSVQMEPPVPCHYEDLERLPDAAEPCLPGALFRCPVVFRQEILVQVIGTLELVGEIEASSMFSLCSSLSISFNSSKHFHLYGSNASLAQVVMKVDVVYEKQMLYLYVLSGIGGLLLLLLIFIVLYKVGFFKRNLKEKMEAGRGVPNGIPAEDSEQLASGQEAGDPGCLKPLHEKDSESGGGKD

[7] = molecular target: T1, rhesus CD11a; assay: blocking of rhesus lymphocyte adhesion to recombinant human ICAM-1 on plates
[8] = molecular target: T1, rhesus CD11a; assay: as above; remark: listed apart in the source
[9] = molecular target: T2, rhesus-human chimeric CD11a (human …); assay: blocking of adhesion of Rh/HuCD11a-transfected 293 cells to human keratinocytes

B1: rhesus-binding MHM24 IgG1 (rhesusized antibody mutant) (antibody, V domains shown)
VH: EVQLVESGGGLVQPGGSLRLSCAASGYSFTGHWMNWVRQAPGKGLEWVGMIAPASSSTRYNQKFKDRFTISVDKSKNTLYLQMNSLRAEDTAVYYCARGIYFYGTTYFDYWGQGTLVTVSS
VL: DIQMTQSPSSLSASVGDRVTITCRASKTISKYLAWYQQKPGKAPKLLIYSGSTLQSGVPSRFSGSGSGTDFTLTISSLQPEDFATYYCQQHNEYPLTFGQGTKVEIKR
In the case of B1, the “fold improvement over the EC50 of HuIgG1 for rhesus CD11a” value [1] is reported as 240 to 415 fold, the “fold weaker than the EC50 of HuIgG1 for human CD11a” value [1] is reported as 3 to 5 fold and the “IC50, rhesus mixed lymphocyte response (MLR)” value [2] is reported as 23.4 nM. The “fold down of Kd from the Kd of HuIgG1 for human CD11a” value [3] was roughly 26 fold, the “fold less efficacious than MHM23” value [4] was 74 fold and the IC50 [5] was 119 nM. For the same binder, the “fold down from MHM23” value [6] was 4 fold, the “fold less efficacious than MHM23” value [7] was 4 fold and the IC50 [8] was 5.3 nM. It also gave an IC50 [9] of 4.9 nM.
